# B1: anti-HER3 antibody, parental IgG1 (antibody, V domains shown)
# VH: EVQLLESGGGLVQPGGSLRLSCAASGFTFSSYAMSWVRQAPGKGLEWVSVTGAVGRSTYYPDSVKGRFTISRDNSKNTLYLQMNSLRAEDTAVYYCARWGDEGFDIWGQGTLVTVSS
# VL: DIQMTQSPSSLSASVGDRVTITCRASQGISNWLAWYQQKPGKAPKLLIYGASSLQSGVPSRFSGSGSGTDFTLTISSLQPEDFATYYCQQYSSFPTTFGQGTKVEIKR
# notes: Parental, unmutated IgG1
# B2: anti-c-Kit antibody, parental IgG1 (antibody, V domains shown)
# VH: EVQLVESGGGLVQPGGSLRLSCAASGFAFSGYYMAWVRQAPGKGLEWVANINYPGSSTYYLDSVKGRFTISRDNAKNSLYLQMNSLRAEDTAVYYCARGDYYGTTYWYFDVWGQGTTVTVSS
# VL: DIQMTQSPSSLSASVGDRVTITCRASQSISSYLNWYQQKPGKAPKLLIYYTSRLQSGVPSRFSGSGSGTDFTLTISSLQPEDFATYYCQQGRRLWSFGGGTKVEIKR
# notes: Parental, unmutated IgG1, VH3/Vk1, made in-house
# B3: Mutated IL-17/Mutated HER3 (b) heterodimeric antibody (bispecific antibody)
# heavy 1: not shown
# light 1: AIQLTQSPSSLSASVGDRVTITCRPSQGINWELAWYQDKPGKAPKLLIYDASSLEQGVPSRFSGSGSGTDFTLTISSLQPEDFATYYCQQFNSYPLTFGGGTKVEIKRTVAAPSVFIFPPSDEKLKSGTASVVCLLNNFYPREAKVQWKVDNALQSGNSQESVTEQDSDDSTYSLSSTLTLSKADYEKHKVYACEVTHQGLSSPVTKSFNRGEC
# heavy 2: not shown
# light 2: DIQMTQSPSSLSASVGDRVTITCRASQGISNWLAWYQKKPGKAPKLLIYGASSLQSGVPSRFSGSGSGTDFTLTISSLQPEDFATYYCQQYSSFPTTFGQGTKVEIKRTVAAPSVFIFPPSDEDLKSGTASVVCLLNNFYPREAKVQWKVDNALQSGNSQESVTEQDSKDSTYSLSSTLTLSKADYEKHKVYACEVTHQGLSSPVTKSFNRGEC
# notes: IgG1 bispecific
# B4: Mutated IL-17/Mutated c-Kit heterodimeric antibody (bispecific antibody)
# heavy 1: not shown
# light 1: AIQLTQSPSSLSASVGDRVTITCRPSQGINWELAWYQDKPGKAPKLLIYDASSLEQGVPSRFSGSGSGTDFTLTISSLQPEDFATYYCQQFNSYPLTFGGGTKVEIKRTVAAPSVFIFPPSDEKLKSGTASVVCLLNNFYPREAKVQWKVDNALQSGNSQESVTEQDSDDSTYSLSSTLTLSKADYEKHKVYACEVTHQGLSSPVTKSFNRGEC
# heavy 2: not shown
# light 2: DIQMTQSPSSLSASVGDRVTITCRASQSISSYLNWYQKKPGKAPKLLIYYTSRLQSGVPSRFSGSGSGTDFTLTISSLQPEDFATYYCQQGRRLWSFGGGTKVEIKRTVAAPSVFIFPPSDEDLKSGTASVVCLLNNFYPREAKVQWKVDNALQSGNSQESVTEQDSKDSTYSLSSTLTLSKADYEKHKVYACEVTHQGLSSPVTKSFNRGEC
# notes: IgG1 bispecific
# B5: Mutated c-Kit/Mutated HER3 (a) heterodimeric antibody (bispecific antibody)
# heavy 1: not shown
# light 1: DIQMTQSPSSLSASVGDRVTITCRASQSISSYLNWYQKKPGKAPKLLIYYTSRLQSGVPSRFSGSGSGTDFTLTISSLQPEDFATYYCQQGRRLWSFGGGTKVEIKRTVAAPSVFIFPPSDEDLKSGTASVVCLLNNFYPREAKVQWKVDNALQSGNSQESVTEQDSKDSTYSLSSTLTLSKADYEKHKVYACEVTHQGLSSPVTKSFNRGEC
# heavy 2: not shown
# light 2: DIQMTQSPSSLSASVGDRVTITCRASQGISNWLAWYQDKPGKAPKLLIYGASSLQSGVPSRFSGSGSGTDFTLTISSLQPEDFATYYCQQYSSFPTTFGQGTKVEIKRTVAAPSVFIFPPSDEKLKSGTASVVCLLNNFYPREAKVQWKVDNALQSGNSQESVTEQDSDDSTYSLSSTLTLSKADYEKHKVYACEVTHQGLSSPVTKSFNRGEC
# notes: IgG1 bispecific
# Legend:
# [1] = target: T1, recombinant human HER3 (human, UniProt P21860 20-643, limits assumed); experiment: SPR, BIAcore T200, antibody on chip, recombinant human antigen as analyte, steady state analysis
# Method: (§1) A direct binding assay was performed to characterize the binding of the engineered antibodies against their antigen. Kinetic binding affinity constants (KD) were measured on protein-A captured protein using recombinant human antigens as analyte. Measurements were conducted on a BIAcore® T200 (GE Healthcare, Glattbrugg, Switzerland) at room temperature. […] To serve as reference, one flow cell was blank immobilized. Binding data were acquired by subsequent injection of analyte dilutions series on the reference and measuring flow cell. Zero concentration samples (running buffer only) were included to allow double referencing during data evaluation. For data evaluation, doubled referenced sensograms were used and analyzed by steady state analysis to generate the equilibrium dissociation constant (KD).
# [2] = target: T2, recombinant human c-Kit (human, UniProt P10721 26-520, limits assumed); experiment: as above
# Method: as §1
# [3] = target: recombinant human IL-17 (human, UniProt Q16552 24-155, limits assumed); experiment: SPR, BIAcore T200, antibody on chip, recombinant human antigen as analyte, steady state analysis; first value taken for antibody 1 arm (IL-17); IL-17 arm (Antibody 1), first value of the cell
# Method: as §1
# [4] = target: T1, recombinant human HER3; experiment: SPR, BIAcore T200, antibody on chip, recombinant human antigen as analyte, steady state analysis; second value taken for antibody 2 arm (HER3); HER3 arm (Antibody 2), second value of the cell
# Method: as §1
# [5] = target: T2, recombinant human c-Kit; experiment: SPR, BIAcore T200, antibody on chip, recombinant human antigen as analyte, steady state analysis; second value taken for antibody 2 arm (c-Kit); c-Kit arm (Antibody 2), second value of the cell
# Method: as §1
# [6] = target: T2, recombinant human c-Kit; experiment: SPR, BIAcore T200, antibody on chip, recombinant human antigen as analyte, steady state analysis; first value taken for antibody 1 arm (c-Kit); c-Kit arm (Antibody 1), first value of the cell
# Method: as §1
Binder,Kd [3] [nM],Kd [4] [nM],also measured
B1,,,Kd [1]: 1 nM
B2,,,Kd [2]: 20 nM
B3,0.01,4,
B4,0.07,,Kd [5]: 20 nM
B5,,0.4,Kd [6]: 22 nM
